Here are results for 2 molecules from patent US20200353078A1 (AstraZeneca / MedImmune, published 2020).

Like-named read-outs stand apart in the source and are kept apart here.

First the molecules themselves.
B2: 33_640087-7B IgG1 (antibody, V domains shown)
VH: EVQLLESGGGLVQPGGSLRLSCAASGFTFSSYAMSWVRQAPGKGLEWVSGISAIDQSTYYADSVKGRFTISRDNSKNTLYLQMNSLRAEDTAVYYCARQKFMQLWGGGLRYPFGYWGQGTMVTVSS
VL: SYVLTQPPSVSVSPGQTASITCSGEGMGDKYAAWYQQKPGQSPVLVIYRDTKRPSGIPERFSGSNSGNTATLTISGTQAMDEADYYCGVIQDNTGVFGGGTKLTVL
notes: IgG1

One assay has as its target T1, 33_640237-2B IgG1.
T1 construct: IgG1
Kind of assay: HTRF: unlabelled test protein competes with biotinylated human IL33-01 for DyLight650 labelled 33_640237-2B IgG. The procedure:
(§1) Human, cyno and mouse IL-33 FLAG® His (described in Example 1 and Table 21), Human IL-1 alpha and IL-1 beta (R&D Systems) (Table 21) or rat IL-33 (GenScript) were tested for inhibition of human IL-33 binding to DyLight650 labelled 33_640087-7B or DyLight650 labelled 33_640237-2B by adding 5 microlitres of each dilution of sample to a 384 well low volume assay plate (Costar, 3673). […] This was followed by the addition of 2.5 microlitres of a solution containing 0.12 nM biotinylated human IL-33-01 combined with 0.75 nM streptavidin cryptate detection (Cisbio International, 610SAKLB). All dilutions were performed in assay buffer containing 0.8 M potassium fluoride (VWR, 26820.236) and 0.1% bovine serum albumin (BSA, PAA, K05-013) in Dulbeccos PBS (Invitrogen, 14190185). Assay plates were incubated for 4 hours at room temperature followed by 18 hours at 4 degrees Celsius and time resolved fluorescence was read at 620 nm and 665 nm emission wavelengths using an EnVision plate reader (Perkin Elmer). Data were analysed by calculating the 665/620 nm ratio followed by the % Delta F values for each sample. The 665/620 nm ratio was used to correct for sample interference using Equation 1. The % Delta F for each sample was then calculated using Equation 2. The negative control (non-specific binding) was defined by replacing biotinylated human IL-33 combined with streptavidin cryptate detection with streptavidin cryptate detection only. The % Delta F values were subsequently used to calculate % specific binding as described in Equation 3. IC₅₀ values were determined using GraphPad Prism software by curve fitting using a four-parameter logistic equation (Equation 4).
A general note: Time-resolved FRET reads energy transfer from a long-lived donor to a nearby acceptor.

For assay [1], the target named is T2, 33v20064 IgG1.
T2 construct: IgG1; also called ZZ1EBX-E05
T2 sequence (VL, as listed by the source): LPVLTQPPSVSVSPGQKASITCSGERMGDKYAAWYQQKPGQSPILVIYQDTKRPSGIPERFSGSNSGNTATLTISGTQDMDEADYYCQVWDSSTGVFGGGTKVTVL
Description: HTRF: unlabelled test protein competes with biotinylated human IL33-01 for DyLight labelled 33v20064 IgG. The procedure:
(§2) Human, cyno and mouse IL-33 FLAG® His (described in Example 1) were tested for inhibition of human IL-33 binding to DyLight labelled 33v20064 by adding 5 microlitres of each dilution of IL-33 sample to a 384 well low volume assay plate (Costar, 3673). […] This was followed by the addition of 2.5 microlitres of a solution containing 1.2 nM biotinylated human IL-33-01 combined with 1.5 nM streptavidin cryptate detection (Cisbio International, 610SAKLB). All dilutions were performed in assay buffer containing 0.8 M potassium fluoride (VWR, 26820.236) and 0.1% bovine serum albumin (BSA, PAA, K05-013) in Dulbeccos PBS (Invitrogen, 14190185). Assay plates were incubated for 1 hour at room temperature and time resolved fluorescence was read at 620 nm and 665 nm emission wavelengths using an EnVision plate reader (Perkin Elmer). Data were analysed by calculating the 665/620 nm ratio followed by the % Delta F values for each sample. The 665/620 nm ratio was used to correct for sample interference using Equation 1. The % Delta F for each sample was then calculated using Equation 2. The negative control (non-specific binding) was defined by replacing biotinylated human IL-33 combined with streptavidin cryptate detection with streptavidin cryptate detection only. […] IC₅₀ values were determined using GraphPad Prism software by curve fitting using a four-parameter logistic equation (Equation 4).

Assay [2] concerns the target T2, 33v20064 IgG1. The assay is described as above. The procedure: as §2
The source holds these as a separate data set.

The assay “33_640087-7B IgG1” deals with B2. Description: HTRF: unlabelled test protein competes with biotinylated human IL33-01 for DyLight650 labelled 33_640087-7B IgG. The procedure: as §1, with “The negative control (non-specific binding) was defined by replacing biotinylated human IL-33 combined with streptavidin cryptate detection with streptavidin cryptate detection only. The % Delta F values were subsequently used to calculate % specific binding as described in Equation 3.” left out

Assay [3] concerns the target T3, His10/Avi Human IL33-01 (human).
T3 construct: Wild type mature IL-33 with N-terminal 10xHis, Avitag and Factor Xa site; biotinylated by BirA on the Avitag where used biotinylated; reduced form unless treated; also called N-terminal His Avi IL-33; His-Avi human IL-33 wild type
T3 chain: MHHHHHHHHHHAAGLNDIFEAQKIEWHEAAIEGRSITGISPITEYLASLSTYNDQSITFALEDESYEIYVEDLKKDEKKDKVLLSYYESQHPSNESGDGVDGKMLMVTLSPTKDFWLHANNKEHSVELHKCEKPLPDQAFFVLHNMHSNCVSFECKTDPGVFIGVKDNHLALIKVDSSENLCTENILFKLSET
Description: HTRF competition: purified IgG against FLAG-His human ST2 for biotinylated IL33-01, overnight incubation.

For assay [4], the target named is T3, His10/Avi Human IL33-01. Description: cell-based or functional assay.
Assay [5] has as its target T4, Recombinant human IL-33 (construct not named in the example) (human, UniProt O95760 112-270, limits assumed).
T4 construct: also called Recombinant, enzymatically biotinylated human IL-33 (produced in-house); IL-33 (200 nM)
T4 sequence (looked up): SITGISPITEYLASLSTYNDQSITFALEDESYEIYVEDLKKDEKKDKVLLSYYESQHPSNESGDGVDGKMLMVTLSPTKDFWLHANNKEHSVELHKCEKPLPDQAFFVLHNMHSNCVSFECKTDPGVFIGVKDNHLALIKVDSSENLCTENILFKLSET
Kind of assay: KinExA 3200, IgG at 5 pM and 500 fM equilibrated with IL-33, 25 C. The procedure:
The affinity of the antibody 33_640087-7B was measured by kinetic exclusion assays performed on the KinExA 3200. The sampling beads were prepared by mixing 200 mg of dry UltraLink Biosupport Azlactone beads with 110 μg of IL-33 (as mentioned previously) in 2.5 ml of 50 mM sodium hydrogen bicarbonate pH 8.4 at room temperature for 2 hours with constant agitation. The beads were rinsed and blocked with 10 mg/ml BSA in 1M Tris pH 8.7. Prior to use, the beads were resuspended into D-PBS, 0.02% sodium azide. 33_640087-7B/IL-33 equilibrium mixtures were prepared in sample buffer composed of 1 mg/ml BSA, 0.02% sodium azide in DPBS (Dulbecco's PBS). […] The fluorescent secondary detection reagent was Alexa Fluor 647 goat anti-human-Fc diluted in 1 mg/ml BSA, 0.02% sodium azide, 0.1% Tween 20 in DPBS. The samples were run on the KinExA whilst housed in a temperature controlled cabinet set at 25° C. The data was analysed using the KinExA Pro software version 4.1.11.
(In KinExA the mixture passes briefly over coated beads that capture the unbound partner.)

In another assay the target is T5, Endogenous human IL-33 (human, UniProt O95760 1-270, limits assumed).
T5 sequence (looked up): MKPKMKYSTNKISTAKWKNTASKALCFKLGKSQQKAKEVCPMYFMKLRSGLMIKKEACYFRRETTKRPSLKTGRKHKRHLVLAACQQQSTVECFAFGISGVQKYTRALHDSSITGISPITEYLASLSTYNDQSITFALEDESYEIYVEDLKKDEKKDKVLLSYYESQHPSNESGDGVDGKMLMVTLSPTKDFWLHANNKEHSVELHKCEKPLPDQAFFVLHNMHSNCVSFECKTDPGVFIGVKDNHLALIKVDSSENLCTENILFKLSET
Kind of assay: cell-based or functional assay.

B1: Human IL-33 Flag®His (ligand)
chain: SITGISPITEYLASLSTYNDQSITFALEDESYEIYVEDLKKDEKKDKVLLSYYESQHPSNESGDGVDGKMLMVTLSPTKDFWLHANNKEHSVELHKCEKPLPDQAFFVLHNMHSNCVSFECKTDPGVFIGVKDNHLALIKVDSSENLCTENILFKLSETNPAFLYKVVGAADYKDDDDKAAHHHHHHHHHH
notes: Mature IL-33 with C-terminal FLAG 10xHis tag, from E. coli; biotinylated via free cysteines where used biotinylated; also called Mature Human IL-33_FH; human IL-33 FH
As for B1, the “IC50 (read off the curve)” value is about 1000 pM in the assay with 33_640237-2B IgG1, about 100000 pM in the assay with 33v20064 IgG1 [1], about 200000 pM in the assay with 33v20064 IgG1 [2] and about 700 pM with 33_640087-7B IgG1.

For the molecule B2, the “IC50 (read off the curve)” value with His10/Avi Human IL33-01 [3] was about 400 pM. Moreover, in the assay with His10/Avi Human IL33-01 [4], the “IC50 (nM) vs. His Avi IL-33, Huvec IL-8 assay” value is 0.046 nM. Besides, the equilibrium dissociation constant (Kd) in assay [5] was found to be 0.03 pM. Also, in the assay with Endogenous human IL-33, the “IC50, Huvec IL-8 release stimulated by human lung lysate” value came to 13 pM.

Usually Kd stands for the equilibrium constant for the complex coming apart.
